According to patent publication US6436901B1, “Pharmaceutical compositions” (UCP Gen-Pharma AG, priority 1994, dated 2002):

Test: RP-HPLC of hirudin in water (FIG. 1)
Type: physicochemical
Experimental: RP-HPLC method: A LiChroCART 125-4 column is used (Merck LiChrospher 100 RP-18 5 μm). Solvent A is 0.5% ammoniumacetate in acetonitrile/water (10:90), (v:v); solvent B is 0.5% ammoniumacetate in acetonitrile/water (25:75). The elution is performed at 45° C. using a flow rate of 0.5 ml/min. The binary elution is a linear gradient starting at time zero with 23% solvent B and reaching 46% solvent B after 24 minutes. After 2 min at 70% solvent B the column is equilibrated for 7 min at 23% solvent B.
A typical chromatogram of recombinant hirudin HV1 (CGP 39393) in water using the RP-HPLC (1 mg/ml hirudin) method is shown in FIG. 1.
In FIG. 1 the relative area of the main peak is 95.15%. […] The changes which occur can be accelerated by using temperature stress experiments i.e. by storage at elevated temperatures.

Question: Which “relative area of the main peak” value (in water, 1 mg/ml hirudin, typical chromatogram FIG. 1, no storage stress) does the source give for hirudin here?
Answer: 95.15%

Question: What about the “stability on storage in water” value (storage in water at room temperature) of the same substance?
Answer: increase of by products with time
